Laboratory results: US20080311122A1, “Antagonists of Hmgb1 and/or Rage and Methods of Use Thereof” (Medimmune, LLC, priority 2005, published 2008)

Key:
[1] = molecular target: T1, recombinant HMG1 (Homo sapiens, UniProt P09429); experiment: HMG1 binding affinity via BIAcore analysis
T1 construct: made in house; host or cells: E. coli
T1 sequence (P09429 1-215): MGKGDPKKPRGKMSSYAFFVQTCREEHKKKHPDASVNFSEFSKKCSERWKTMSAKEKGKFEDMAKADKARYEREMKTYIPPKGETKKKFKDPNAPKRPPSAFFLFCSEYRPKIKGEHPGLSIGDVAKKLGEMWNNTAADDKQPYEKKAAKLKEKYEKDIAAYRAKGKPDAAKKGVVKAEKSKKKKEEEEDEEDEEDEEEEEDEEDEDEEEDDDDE
Procedure: HMG1 Binding Affinity via BIAcore Analysis: All experiments were performed on a BIAcore 3000 instrument (BIAcore, Inc., Piscataway, N.J.). Briefly, each mAb was immobilized to a CM5 sensor chip using a standard amino coupling chemistry. Separately a reference (control) flow cell was also prepared. Two-fold, serial dilutions of HMG1 in instrument buffer were sequentially injected at a slow flow rate over the individual mAb and reference flow-cell surfaces. Following the binding and dissociation of HMG1, the mAbs surfaces were regenerated with a brief pulse of 1M NaCl-50 mM NaOH. At the end of each experiment, the binding curves were evaluated using a steady-state model available through the BIA evaluation software supplied by BIAcore, Inc. (Piscataway, N.J.).

[2] = tested on: native activated HMG1 stimulated IL-6 release from human PBMCs; experiment: Inhibition of cytokine release from PBMCs, native activated HMG1; type: cell-based
Procedure: Inhibition of Cytokine Release: Human peripheral blood mononuclear cells (PBMCs) were isolated from the peripheral blood of healthy volunteers by a density gradient centrifugation. Freshly drawn heparinized whole blood was mixed with two volume of PBS. The diluted blood was gently layered on the surface of Histopaque-1077 (Sigma-Aldrich) and centrifuged at 400×g, at RT for 30 minute. PBMCs were collected from the interface between the plasma and the density gradient solution. After washing in PBS 3×, the purified PBMCs were resuspended in RPMI-1640 medium (GIBCO BRL) containing 100 U/ml penicillin, 100 μg/ml streptomycin and […] β-mercaptoethanol. 1×10^5 of cells was added in each well of 96-well cell culture plates.
The PBMCs were incubated for two hours at 37° C. with 5% CO2. recombinant HMG1, at 4 μg/ml, or native activated HMG1 from 2.4×10^5 LPS stimulated THP-1 cells, and different concentrations of human anti-HMGB-1 monoclonal antibodies, a RAGE-FC fusion protein or an HMG1 A-box-Fc fusion protein were added into each well. The culture media was supplemented with 8 U/ml (1 μg/ml) Polymyxin B sulphate (Sigma-Aldrich) to inhibit potential endotoxin. PBMCs from the same donor without stimulation with HMG1 were used as controls. The cell-free culture media were harvested after 14 hours and stored at −20° C.
The culture media were analyzed for inflammatory cytokines using Beadlyte human multi-cytokine flex kit from Upstate by Luminex 100 (Luminex Corp.). Proinflammatory cytokines TNF-α, IL-6, IL-1β and IL-12 (p40) were measured for cells stimulated with recombinant HMG1. In addition, TNF-α, IL-6, IL-1β and IL-8 were measured for cells stimulated with native activated HMG1.
Cytokine release data is presented as mean of triplicates±standard deviations. IC50 for anti-HMGB1 monoclonal antibody is defined as the concentration of antibody required yielding one-half maximal inhibition of the cytokine release from PBMCs stimulated by HMGB1. It was calculated by PRISM program.

[3] = molecular target: T2, recombinant HMG1 binding to RAGE-Fc (Homo sapiens, UniProt P09429); experiment: HMG1 binding to RAGE-Ig by ELISA; details: at the concentrations tested
T2 construct: made in house; host or cells: E. coli (HMG1)
T2 sequence (P09429 1-215): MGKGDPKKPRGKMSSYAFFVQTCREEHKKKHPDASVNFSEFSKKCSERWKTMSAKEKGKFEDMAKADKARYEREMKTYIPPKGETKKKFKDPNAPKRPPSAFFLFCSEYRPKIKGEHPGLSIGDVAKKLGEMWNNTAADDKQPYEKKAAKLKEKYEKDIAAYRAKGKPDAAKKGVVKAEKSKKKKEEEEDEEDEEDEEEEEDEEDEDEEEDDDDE
Procedure: HMG1 binding to RAGE-Ig by ELISA: 50 μl/well of RAGE-Fc fusion protein at 5 μg/ml in PBS was added to each well of an ELISA plate and incubated overnight at 4° C. The plate was then blocked with 200 μl of 5% milk at 37° C. for 1 hr and washed 3× with PBS/Tween. 50 μl/well of diluted HMGB1 solution. For dose curves, HMGB1 concentrations started at 4 ug/ml in PBS. For antibody blocking the HMGB1 was preincubated in another plate with human anti-HMG1 antibodies or buffer, then transferred to the RAGE-coated plate. The plates were then incubated at room temperature for 2 hours and washed 3×. To detect any HMG1 bound to the immobilized RAGE-Fc a mixture of biotinylated mouse anti-HMG1 mAbs (10D4, 4H11, 3E10 and 5C12) each at 1 ug/ml, total Ab: 4 ug/ml, were added to each well and the plate was incubated for 1 hour at room temperature. The plate was then washed and Strepavidin-HPR was added to each well and incubated 15 min. The plate was then washed 3× and blotted dry. 100 μl of TMB developing agent was added and the plate read at 650 nm. Values were calculated as percent of inhibition with HMG1 alone equal to 0% inhibition. The data in FIG. 9 and summarized in Table 1 represent the average of two separate experiments.

B1: S17: human anti-HMG1 antibody; VL/VH aa SEQ ID NO: 70/72 (antibody, listed as Homo sapiens, V domains shown)
VH: EVQLLESGGGLVQPGGSLRLSCAASGFTFSYYDMHWVRQAPGKGLEWVSRISPSGGYTWYADSVKGRFTISRDNSKNTLYLQMNSLRAEDTAVYYCTRGRYTSGWHEYFDPWGQGTLVTVSS
VL: AQDIQMTQSPSSLSASVGDRVTITCRASQSIGTYLNWYQQKPGTAPKVLIYAASSLQSGVPSRFSGSGSGTDFTLTISSLQPEDFSTYYCQQSYNTPRTFGQGTKLEIK
Kd [1]: 331 nM | block of IL-6 release induced by native activated HMG1 [2]: able to block IL-6 released induced by native activated HMG1 | block of recombinant HMG1 binding to RAGE [3]: do not at the concentrations tested
